Source: IntAct's records for PubMed 29039417

B1: BBSome complex member BBS2 (Homo sapiens), Q9BXC9 (parent)
chain: MLLPVFTLKLRHKISPRMVAIGRYDGTHPCLAAATQTGKVFIHNPHTRNQHVSASRVFQSPLESDVSLLSINQAVSCLTAGVLNPELGYDALLVGTQTNLLAYDVYNNSDLFYREVADGANAIVLGTLGDISSPLAIIGGNCALQGFNHEGSDLFWTVTGDNVNSLALCDFDGDGKKELLVGSEDFDIRVFKEDEIVAEMTETEIVTSLCPMYGSRFGYALSNGTVGVYDKTSRYWRIKSKNHAMSIHAFDLNSDGVNELITGWSNGKVDARSDRTGEVIFKDNFSSAIAGVVEGDYRMDGHIQLICCSVDGEIRGYLPGTAEMRGNLMDTSAEQDLIRELSQKKQNLLLELRNYEENAKAELASPLNEADGHRGIIPANTRLHTTLSVSLGNETQTAHTELRISTSNDTIIRAVLIFAEGIFTGESHVVHPSIHNLSSSICIPIVPPKDVPVDLHLKAFVGYRSSTQFHVFESTRQLPRFSMYALTSLDPASEPISYVNFTIAERAQRVVVWLGQNFLLPEDTHIQNAPFQVCFTSLRNGGHLHIKIKLSGEITINTDDIDLAGDIIQSMASFFAIEDLQVEADFPVYFEELRKVLVKVDEYHSVHQKLSADMADHSNLIRSLLVGAEDARLMRDMKTMKSRYMELYDLNRDLLNGYKIRCNNHTELLGNLKAVNQAIQRAGRLRVGKPKNQVITACRDAIRSNNINTLFKIMRVGTASS
partner: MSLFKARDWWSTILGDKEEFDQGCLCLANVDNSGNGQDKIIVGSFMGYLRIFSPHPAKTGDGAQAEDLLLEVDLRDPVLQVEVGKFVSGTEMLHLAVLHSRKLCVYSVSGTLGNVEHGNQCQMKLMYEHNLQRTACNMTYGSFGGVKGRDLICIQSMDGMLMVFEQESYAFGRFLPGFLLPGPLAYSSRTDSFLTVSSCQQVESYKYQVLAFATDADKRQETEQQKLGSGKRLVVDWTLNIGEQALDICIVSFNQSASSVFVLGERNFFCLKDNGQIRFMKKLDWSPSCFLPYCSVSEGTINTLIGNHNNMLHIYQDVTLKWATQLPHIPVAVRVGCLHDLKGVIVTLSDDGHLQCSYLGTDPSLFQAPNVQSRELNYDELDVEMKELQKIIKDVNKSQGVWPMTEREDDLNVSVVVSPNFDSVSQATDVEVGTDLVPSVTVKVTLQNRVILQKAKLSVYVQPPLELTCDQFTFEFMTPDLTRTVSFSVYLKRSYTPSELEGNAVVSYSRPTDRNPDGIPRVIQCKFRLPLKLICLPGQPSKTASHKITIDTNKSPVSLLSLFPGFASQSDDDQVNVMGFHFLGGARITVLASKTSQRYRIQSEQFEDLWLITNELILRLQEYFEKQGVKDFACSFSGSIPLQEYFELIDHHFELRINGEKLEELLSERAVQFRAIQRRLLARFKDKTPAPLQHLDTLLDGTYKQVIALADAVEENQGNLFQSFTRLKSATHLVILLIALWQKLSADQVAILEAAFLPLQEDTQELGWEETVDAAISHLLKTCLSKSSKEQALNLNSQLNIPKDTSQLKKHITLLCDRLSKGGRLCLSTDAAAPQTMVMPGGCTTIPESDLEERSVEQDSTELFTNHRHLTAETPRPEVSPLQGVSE

Variants of: B1
Settings: with pthb1_human BBS9, Q3SYG4

Variant	effect of a mutation on the interaction
G425K	with no effect
E426A	with no effect
E426K	with no effect
S427A	with no effect
S427E	with no effect
S427K	with no effect
H428A	with no effect
H428E	with no effect
H428K	with no effect
V429A	with no effect
V429E	with no effect
V429K	with no effect
V430A	disrupting interaction strength
V430E	with no effect
V430K	with no effect
H431A	with no effect
H431E	with no effect
H431K	with no effect
H431R	disrupting interaction strength
P432A	with no effect
P432E	with no effect

Variant	effect of a mutation on the interaction
P432K	with no effect
P432L	disrupting interaction strength
S433A	with no effect
S433E	with no effect
S433K	with no effect
I434A	with no effect
I434E	with no effect
I434K	with no effect
H435A	with no effect
H435E	with no effect
H435K	with no effect
N436A	with no effect
N436E	with no effect
N436K	with no effect
L437A	with no effect
L437E	with no effect
L437K	disrupting interaction strength
S438A	with no effect
S438E	with no effect
S438F	disrupting interaction strength
S438K	with no effect

Variant	effect of a mutation on the interaction
S439A	disrupting interaction strength
S439E	disrupting interaction strength
S439K	with no effect
S439N	disrupting interaction strength
S440A	with no effect
S440E	with no effect
S440K	with no effect
I441A	with no effect
I441E	with no effect
I441K	with no effect
C442A	with no effect
C442E	with no effect
C442K	with no effect
I443A	disrupting interaction strength
I443E	disrupting interaction strength
I443K	disrupting interaction strength
P444A	with no effect
P444E	with no effect
P444K	with no effect
I445A	disrupting interaction strength
I445E	disrupting interaction strength

Variant	effect of a mutation on the interaction
I445K	disrupting interaction strength
I445Q	disrupting interaction strength
I445T	disrupting interaction strength
V446A	with no effect
V446E	with no effect
V446K	with no effect
P447A	with no effect
P447E	with no effect
P447K	with no effect
P448A	with no effect
P448E	with no effect
P448K	with no effect
K449A	with no effect
K449E	with no effect
K449R	disrupting interaction strength
D450A	with no effect
D450E	with no effect
D450K	with no effect
D450L	disrupting interaction strength
V451A	with no effect
